Assay results: PMC10303109

Biological target: SARS-CoV-2 spike RBD wild type (SARS-CoV-2 (Wuhan strain)) (UniProt P0DTC2)
Assay: filter binding

Question: Which Kd (11 Nap-dU in place of dT) does the source give for “CTGUCGGUAAGGGAGCUAGUGUAUGCCCCUGAGUUGGGGAUAUCACCGACAG [AM047-0]” here?
Answer: Its Kd is 0.02 nM.

Question: “TATCGAGCGTCCTGCCTTTGCGGAGGUGAACCUUACGUUCAACUGGAUCGUGUGUAGGUACACCGACAGCCACCCAGAAA [AM032-0]” was tested. Which Kd (11 Nap-dU (5-[N-(1-naphthylmethyl)carboxamide]-2'-deoxyuridine) in place of dT) did it give?
Answer: Its Kd is 0.78 nM.
